Columns and labels:
H3K9Cme3-NCP = experiment: Fluorescence polarization, CHD3 PHD1/2 with H3K9Cme3-NCP; format: binding, human; conditions: read-out: apparent dissociation constant Kd (H3K9Cme3-NCP), 5 nM nucleosomes, 15 mM Tris pH 7.5, 75 mM NaCl, 0.00625% Tween20, 3 mM DTT, three separate experiments
CHD3 PHD1/2 = experiment: Tryptophan fluorescence, linked CHD3 PHD1/2 with histone H3 peptides; format: binding; conditions: either peptide; apparent Kds measured by tryptophan fluorescence
Cy3-Cy5-H3K9Cme3-NCP = experiment: FRET nucleosome unwrapping, Cy3-Cy5-H3K9Cme3-NCP; format: biochemical, human

Kd (H3K9Cme3-NCP): 1400 nM
fold stronger binding of linked PHD1/2 than unlinked individual domains (CHD3 PHD1/2): ~10^2 fold
B1: CHD3 PHD1/2: natively linked tandem PHD fingers of CHD3, construct PHD1/2 (373–508) (protein)
chain: GYETDHQDYCEVCQQGGEIILCDTCPRAYHLVCLDPELDRAPEGKWSCPHCEKEGVQWEAKEEEEEYEEEGEEEGEKEEEDDHMEYCRVCKDGGELLCCDACISSYHIHCLNPPLPDIPNGEWLCPRCTCPVLKGR
modifications: left off: GST, end not stated, cleaved
change in FRET efficiency by CHD3 PHD1/2 without LA (Cy3-Cy5-H3K9Cme3-NCP; CHD3 PHD1/2 up to 300 µM): no measurable change in the FRET efficiency
change in FRET efficiency by CHD3 PHD1/2 with LA (Cy3-Cy5-H3K9Cme3-NCP; LA at a concentration equivalent to the LA S1/2): reduced substantially

Reference: article PMC5653232 (Cell reports, 2017)
